Data: patent US20240343815A1 (CHIA TAI TIANQING PHARMACEUTICAL GROUP, published 2024)

B1: huC2C1A1A1-V4 (antibody, human IgG4 S228P, kappa, V domains shown)
VH: EVQLVESGGGLVQPGGSLRLSCAASGFTFSTYGMSWVRQAPGKGLVWVSTINSNGGSTSYPDSVKGRFTISRDNAKNTLYLQMNSLRAEDTAVYYCARFFRFRNAMDYWGQGTLVTVSS
VL: DIQMTQSPSSLSASVGDRVTITCRTSENIYSYLAWYQQKPGKAPKFLIYNAKTLAEGVPSRFSGSGSGTDFTLTISSLQPEDFATYYCQHYYGPPTWTFGQGTKVEIKR
notes: Humanized IgG4/kappa
B2: huC2C1A1A1-V10 (antibody, human IgG4 S228P, kappa, V domains shown)
VH: EVQLVESGGGLVQPGGSLRLSCAASGFTFSTYGMSWVRQAPGKGLVLVATINSNGGSTSYPDSVKGRFTISRDNAKNTLYLQMNSLRAEDTAVYYCARFFRFRNAMDYWGQGTLVTVSS
VL: DIQMTQSPSSLSASVGQRVTITCRTSENIYSYLAWYQQKQGKPPRFLIYNAKTLAEGVPSRFSGSGSGTEFTLTITSLQAEDFGVYYCQHYYGPPTWTFGPGTKLEIKR
notes: Humanized IgG4/kappa
B3: huC2C1A1A1-V8 (antibody, human IgG4 S228P, kappa, V domains shown)
VH: EVQLVESGGGLVQPGGSLRLSCAASGFTFSTYGMSWVRQSPDKRLEWVSTINSNGGSTSYPDSVKGRFTISRDNAKNTLYLQMRSLRAEDTAVYYCARFFRFRNAMDYWGQGTLVTVSS
VL: DIQMTQSPSSLSASVGDRVTITCRTSENIYSYLAWYQQKPGKAPKFLIYNAKTLAEGVPSRFSGSGSGTDFTLTISSLQPEDFATYYCQHYYGPPTWTFGQGTKVEIKR
notes: Humanized IgG4/kappa
B4: huC2C1A1A1-V14 (antibody, human IgG4 S228P, kappa, V domains shown)
VH: EVQLVESGGGLVQPGGSLRLSCAASGFTFSTYGMSWVRQAPGKGLVWVATINSNGGSTSYPDSVKGRFTISRDNAKNTLYLQMNSLRAEDTAVYYCARFFRFRNAMDYWGQGTLVTVSS
VL: DIQMTQSPSSLSASVGQRVTITCRTSENIYSYLAWYQQKQGKPPRFLIYNAKTLAEGVPSRFSGSGSGTEFTLTITSLQAEDFGVYYCQHYYGPPTWTFGPGTKLEIKR
notes: Humanized IgG4/kappa
B5: huC2C1A1A1-V9 (antibody, human IgG4 S228P, kappa, V domains shown)
VH: EVQLVESGGGLVQPGGSLRLSCAASGFTFSTYGMSWVRQAPGKGLVLVATINSNGGSTSYPDSVKGRFTISRDNAKNTLYLQMNSLRAEDTAVYYCARFFRFRNAMDYWGQGTLVTVSS
VL: DIQMTQSPSSLSASVGDRVTITCRTSENIYSYLAWYQQKPGKAPKLLIYNAKTLAEGVPSRFSGSGSGTDFTLTISSLQPEDFATYYCQHYYGPPTWTFGQGTKVEIKR
notes: Humanized IgG4/kappa
B6: huC2C1A1A1-V1 (antibody, human IgG4 S228P, kappa, V domains shown)
VH: EVQLVESGGGLVQPGGSLRLSCAASGFTFSTYGMSWVRQAPGKGLVWVSTINSNGGSTSYPDSVKGRFTISRDNAKNTLYLQMNSLRAEDTAVYYCARFFRFRNAMDYWGQGTLVTVSS
VL: DIQMTQSPSSLSASVGDRVTITCRTSENIYSYLAWYQQKPGKAPKLLIYNAKTLAEGVPSRFSGSGSGTDFTLTISSLQPEDFATYYCQHYYGPPTWTFGQGTKVEIKR
notes: Humanized IgG4/kappa
B7: huC2C1A1A1-V15 (antibody, human IgG4 S228P, kappa, V domains shown)
VH: EVQLVESGGGLVQPGGSLRLSCAASGFTFSTYGMSWVRQAPGKGLVWVATINSNGGSTSYPDSVKGRFTISRDNAKNTLYLQMNSLRAEDTAVYYCARFFRFRNAMDYWGQGTLVTVSS
VL: DIQMTQSPSSLSASVGDRVTITCRTSENIYSYLAWYQQKPGKAPKFLVYNAKTLAEGVPSRFSGSGSGTDFTLTISSLQPEDFATYYCQHYYGPPTWTFGQGTKVEIKR
notes: Humanized IgG4/kappa
B8: huC2C1A1A1-V5 (antibody, human IgG4 S228P, kappa, V domains shown)
VH: EVQLVESGGGLVQPGGSLRLSCAASGFTFSTYGMSWVRQSPDKRLEWVSTINSNGGSTSYPDSVKGRFTISRDNAKNTLYLQMRSLRAEDTAVYYCARFFRFRNAMDYWGQGTLVTVSS
VL: DIQMTQSPSSLSASVGDRVTITCRTSENIYSYLAWYQQKPGKAPKLLIYNAKTLAEGVPSRFSGSGSGTDFTLTISSLQPEDFATYYCQHYYGPPTWTFGQGTKVEIKR
notes: Humanized IgG4/kappa
B9: huC2C1A1A1-V12 (antibody, human IgG4 S228P, kappa, V domains shown)
VH: EVQLVESGGGLVQPGGSLRLSCAASGFTFSTYGMSWVRQAPGKGLVLVATINSNGGSTSYPDSVKGRFTISRDNAKNTLYLQMNSLRAEDTAVYYCARFFRFRNAMDYWGQGTLVTVSS
VL: DIQMTQSPSSLSASVGDRVTITCRTSENIYSYLAWYQQKPGKAPKFLIYNAKTLAEGVPSRFSGSGSGTDFTLTISSLQPEDFATYYCQHYYGPPTWTFGQGTKVEIKR
notes: Humanized IgG4/kappa
B10: huC2C1A1A1-V2 (antibody, human IgG4 S228P, kappa, V domains shown)
VH: EVQLVESGGGLVQPGGSLRLSCAASGFTFSTYGMSWVRQAPGKGLVWVSTINSNGGSTSYPDSVKGRFTISRDNAKNTLYLQMNSLRAEDTAVYYCARFFRFRNAMDYWGQGTLVTVSS
VL: DIQMTQSPSSLSASVGQRVTITCRTSENIYSYLAWYQQKQGKPPRFLIYNAKTLAEGVPSRFSGSGSGTEFTLTITSLQAEDFGVYYCQHYYGPPTWTFGPGTKLEIKR
notes: Humanized IgG4/kappa
B11: huC2C1A1A1-V7 (antibody, human IgG4 S228P, kappa, V domains shown)
VH: EVQLVESGGGLVQPGGSLRLSCAASGFTFSTYGMSWVRQSPDKRLEWVSTINSNGGSTSYPDSVKGRFTISRDNAKNTLYLQMRSLRAEDTAVYYCARFFRFRNAMDYWGQGTLVTVSS
VL: DIQMTQSPSSLSASVGDRVTITCRTSENIYSYLAWYQQKPGKAPKFLVYNAKTLAEGVPSRFSGSGSGTDFTLTISSLQPEDFATYYCQHYYGPPTWTFGQGTKVEIKR
notes: Humanized IgG4/kappa
B12: huC2C1A1A1-V11 (antibody, human IgG4 S228P, kappa, V domains shown)
VH: EVQLVESGGGLVQPGGSLRLSCAASGFTFSTYGMSWVRQAPGKGLVLVATINSNGGSTSYPDSVKGRFTISRDNAKNTLYLQMNSLRAEDTAVYYCARFFRFRNAMDYWGQGTLVTVSS
VL: DIQMTQSPSSLSASVGDRVTITCRTSENIYSYLAWYQQKPGKAPKFLVYNAKTLAEGVPSRFSGSGSGTDFTLTISSLQPEDFATYYCQHYYGPPTWTFGQGTKVEIKR
notes: Humanized IgG4/kappa
B13: huC2C1A1A1-V13 (antibody, human IgG4 S228P, kappa, V domains shown)
VH: EVQLVESGGGLVQPGGSLRLSCAASGFTFSTYGMSWVRQAPGKGLVWVATINSNGGSTSYPDSVKGRFTISRDNAKNTLYLQMNSLRAEDTAVYYCARFFRFRNAMDYWGQGTLVTVSS
VL: DIQMTQSPSSLSASVGDRVTITCRTSENIYSYLAWYQQKPGKAPKLLIYNAKTLAEGVPSRFSGSGSGTDFTLTISSLQPEDFATYYCQHYYGPPTWTFGQGTKVEIKR
notes: Humanized IgG4/kappa
B14: huC2C1A1A1-V3 (antibody, human IgG4 S228P, kappa, V domains shown)
VH: EVQLVESGGGLVQPGGSLRLSCAASGFTFSTYGMSWVRQAPGKGLVWVSTINSNGGSTSYPDSVKGRFTISRDNAKNTLYLQMNSLRAEDTAVYYCARFFRFRNAMDYWGQGTLVTVSS
VL: DIQMTQSPSSLSASVGDRVTITCRTSENIYSYLAWYQQKPGKAPKFLVYNAKTLAEGVPSRFSGSGSGTDFTLTISSLQPEDFATYYCQHYYGPPTWTFGQGTKVEIKR
notes: Humanized IgG4/kappa
B15: huC2C1A1A1-V16 (antibody, human IgG4 S228P, kappa, V domains shown)
VH: EVQLVESGGGLVQPGGSLRLSCAASGFTFSTYGMSWVRQAPGKGLVWVATINSNGGSTSYPDSVKGRFTISRDNAKNTLYLQMNSLRAEDTAVYYCARFFRFRNAMDYWGQGTLVTVSS
VL: DIQMTQSPSSLSASVGDRVTITCRTSENIYSYLAWYQQKPGKAPKFLIYNAKTLAEGVPSRFSGSGSGTDFTLTISSLQPEDFATYYCQHYYGPPTWTFGQGTKVEIKR
notes: Humanized IgG4/kappa
B16: huC2C1A1A1-V6 (antibody, human IgG4 S228P, kappa, V domains shown)
VH: EVQLVESGGGLVQPGGSLRLSCAASGFTFSTYGMSWVRQSPDKRLEWVSTINSNGGSTSYPDSVKGRFTISRDNAKNTLYLQMRSLRAEDTAVYYCARFFRFRNAMDYWGQGTLVTVSS
VL: DIQMTQSPSSLSASVGQRVTITCRTSENIYSYLAWYQQKQGKPPRFLIYNAKTLAEGVPSRFSGSGSGTEFTLTITSLQAEDFGVYYCQHYYGPPTWTFGPGTKLEIKR
notes: Humanized IgG4/kappa
B17: Mouse C2C1A1A1 (antibody, V domains shown)
VH: EVQLVESGGGLVQPGGSLKLSCAASGFTFSTYGMSWVRQTPDKRLELVATINSNGGSTSYPDSVKGRFTISRDNAKNTLYLQMSSLKSEDTAMFYCARFFRFRNAMDYWGQGTSVTVSS
VL: DIQMTQSPASLSASVGETVTITCRTSENIYSYLAWYQQKQGKSPQFLVYNAKTLAEGVPSRFSGSGSGTQFSLNINSLQSEDFGSYYCQHYYGPPTWTFGGGTKLEIK

Molecular target: T1, recombinant human IL4Rα-his protein (human, UniProt P24394 26-232, biotinylated in the capture ELISA and the benchmark blocking ELISA)
T1 construct: also called biotinylated human IL4Rα-his protein
Assay: SPR Biacore, mAb captured, IL4Rα-his analyte
Description: Briefly, a goat anti-human IgG (GE Healthcare, Cat. No. BR100839, Human Antibody Capture Kit) was covalently attached to a CMS chip (carboxymethylated dextran-coated chip) via the primary amine group using a standard amine coupling kit supplied by Biacore (GE Healthcare, Pittsburgh, PA, USA). Unreacted portions on the biosensor surface were blocked with ethanolamine. Then, the anti-IL4Rα antibody in the present disclosure at 66.67 nM and an anti-IL4Rα antibody benchmark (dupilumab, or DUPIXENT® or BM) at 10 μg/mL were directed through the chip at a flow rate of 10 μL/min. A recombinant human IL4Rα-his protein (prepared in-house, amino acid sequence set forth in SEQ ID NO: 15), a cynomolgus monkey IL4Rα-his protein (Sino Biological Inc., Cat. No. 90897-008H), or a marmoset monkey IL4Rα-his protein (customized product from Sino Biological Inc., denoted as cal-IL4Rα-his, amino acid sequence set forth in SEQ ID NO: 16) serially diluted with an HBS EP buffer (supplied by Biacore) was directed through the chip at a flow rate of 30 μIJmin. The antigen-antibody binding kinetics was tracked for 2 min and the dissociation kinetics was tracked for 10 min. The association and dissociation curves were fitted according to a 1:1 Langmuir binding model using BIA evaluation software, and the KD, Kₐ, and Kd values were determined.
According to the protocol in the examples above, the binding affinity of the humanized antibodies to human IL4Rα was assessed by the BIAcore technique, and the Kₐ, Kd, and KD values were determined and summarized in Table 3.

Row | Binder | Dissociation (%)
1 | B1 | 0.2
2 | B2 | -1.54
3 | B3 | -1.23
4 | B4 | 0.8
5 | B5 | -0.24
6 | B6 | 0.23
7 | B7 | 0.29
8 | B8 | -2.28
9 | B9 | -1.88
10 | B10 | -0.2
11 | B11 | -0.66
12 | B12 | -0.92
13 | B13 | 0.82
14 | B14 | -0.62
15 | B15 | -0.42
16 | B16 | -0.59

Molecular target: T2, human IL4Rα on HEK293T-IL4Rα-STAT6-STAT6LUC-LB2 cells (human, UniProt P24394 26-825)
Assay: cell-based or functional assay

Row | Binder | Inhibition of IL4-induced STAT6 phosphorylation (IC50, nM) [nM] | Inhibition of IL13-induced STAT6 phosphorylation (IC50, nM) [nM]
17 | B4 | 0.64 | 0.73
18 | B7 | 0.61 | 0.6

Molecular target: T2, human IL4Rα on …
Assay: cell-based or functional assay
Remark: another data set of the same source

Row | Binder | Inhibition of IL4-induced STAT6 phosphorylation (IC50, nM) [nM] | Inhibition of IL13-induced STAT6 phosphorylation (IC50, nM) [nM]
19 | B17 | 0.19 | 0.27
